Experimental data taken from patent US20190177434A1.

B1: IgG-Fc-13 (VHH)
VHH: QVQLQESGGGLVQAGGSLRLSCAASGDTFSTYAMGWFRQAPGKEREFVGRIVRGTESTYLIDSVKGRFAISRDNAQNTVYLQMTSLKPEDTAVYFCVARSFGAGQWDYWGQGTQVTVSS
B2: IgG-Fc-11 (VHH)
VHH: QVQLQESGGGLVQAGGSLRLSCAVSGRTFSTYAMGWFRQAPGKEREFVGSANWKSGSTYLVDSVKGRFTISGDNAHDTVHLQMTSLKPEDTGVYFCVARSFGTGQWDYWGQGTQVTVSS
B3: IgG-Fc-12 (VHH)
VHH: QVQLQESGGGLVQAGGSLRLSCAVSGRTFSTYAMGWFRQAPGKEREFVGSINFKSGSIYLADSVKGRFTISGDNAQNTAYLQMTSLKPEDTAVYLCVARSFGTGQWDYWGQGTQVTVSS
B4: IgG-Fc-15 (VHH)
VHH: QVQLQESGGGLVQAGGSLRLSCAVSGRGFSTYAMGWFRQAPGKEREFVGSANWKSGSIYVADSVKGRFTISNDNAQNTVYLQMSSLKPEDTAVYYCVARSFGTGQWDYWGQGTQVTVSS
B5: IgG-Fc-14 (VHH)
VHH: QVQLQESGGGLVQTGGSLRLSCSASGGTFETYAMGWFRQAPGKEREFVGSTNWKSERTYVADSVKGRFTISRDNGQYTAYLQMTSLKPEDTAVYFCVARSFGTGQWDYWGQGTQVTVSS

Target: Human IgG, Fc fragment (human)
Experiment: method not given

Ka, > 4e+09 M⁻¹:
B1, B2, B3, B4, B5
